13 molecules from article PMC5291249, “Two p53 tetramers bind one consensus DNA response element” can be followed below.

Positions count from the first letter of the chain named.

The target of data set [1] is T1, murine p53 (mp53) (mouse, UniProt P02340 1-390). The data set can be described thus: EMSA (GA cross-linked SDS-PAGE); multiple tetramers; 25 mM Tris-HCl pH 7.5, 2 mM DTT, 100 mM NaCl, 1 mM ADP, 5 mM MgCl2 (or 20 mM HEPES pH 7.5, 10 mM ADP), 25 C, then 0.025% glutaraldehyde 20 min; 'weaker' refers. To be noted: protein: recombinant; chain copies: 4; blunt. A general note: A gel shift assay detects complexes by their altered migration in electrophoresis.

Data set [2] has as its target T2, human p53 (hp53) (Homo sapiens, UniProt P04637 1-393). Nature of the data set: EMSA (GA cross-linked SDS-PAGE); 25 mM Tris-HCl pH 7.5, 2 mM DTT, 100 mM NaCl, 1 mM ADP, 5 mM MgCl2 (or 20 mM HEPES pH 7.5, 10 mM ADP), 25 C, then 0.025% glutaraldehyde 20 min; 'weaker' refers. To be noted: protein: recombinant, chain copies: 4.
Data set [3] deals with T1, murine p53 (mp53). Nature of the data set: EMSA (GA cross-linked SDS-PAGE); increased vs 2 bp spacer; 25 mM Tris-HCl pH 7.5, 2 mM DTT, 100 mM NaCl, 1 mM ADP, 5 mM MgCl2 (or 20 mM HEPES pH 7.5, 10 mM ADP), 25 C, then 0.025% glutaraldehyde 20 min; 'weaker' refers. The note with it: protein: recombinant; chain copies: 4; blunt.
Data set [4] has as its target T2, human p53 (hp53). Described as above. The note with it: protein: recombinant; chain copies: 4; blunt.
In another data set the target is mp53Δ30 (mouse, UniProt P02340 1-360). Nature of the data set: EMSA (GA cross-linked, IR dye); 25 mM Tris-HCl pH 7.5, 2 mM DTT, 100 mM NaCl, 1 mM ADP, 5 mM MgCl2 (or 20 mM HEPES pH 7.5, 10 mM ADP), 25 C, then 0.025% glutaraldehyde 20 min; 'weaker' refers. The note with it: protein: recombinant; chain copies: 4; label: 5' IR800 both strands; blunt.
For data set [5], the target named is T1, murine p53 (mp53). The data set is described as above. The note with it: protein: recombinant; chain copies: 4; label: 5' IR800 both strands; blunt.
Data set [6] concerns the target T2, human p53 (hp53). Described as above. The note with it: protein: recombinant; chain copies: 4; label: 5' IR800 both strands; blunt.
For a further data set, the target named is mp53 R273H (mouse, UniProt P02340 1-390, R270H). The description is as above. The note with it: protein: recombinant, chain copies: 4.
Data set [7] addresses T1, murine p53 (mp53). Nature of the data set: EMSA (GA cross-linked SDS-PAGE); 25 mM Tris-HCl pH 7.5, 2 mM DTT, 100 mM NaCl, 1 mM ADP, 5 mM MgCl2 (or 20 mM HEPES pH 7.5, 10 mM ADP), 25 C, then 0.025% glutaraldehyde 20 min; 'weaker' refers. The note with it: protein: recombinant, chain copies: 4.
Data set [8] deals with T2, human p53 (hp53). Nature of the data set: EMSA (GA cross-linked SDS-PAGE); multiple tetramers; 25 mM Tris-HCl pH 7.5, 2 mM DTT, 100 mM NaCl, 1 mM ADP, 5 mM MgCl2 (or 20 mM HEPES pH 7.5, 10 mM ADP), 25 C, then 0.025% glutaraldehyde 20 min; 'weaker' refers. The note with it: protein: recombinant; chain copies: 4; blunt.
The target of data set [9] is T1, murine p53 (mp53). The data set can be described thus: EMSA (GA cross-linked SDS-PAGE); among most efficient; 25 mM Tris-HCl pH 7.5, 2 mM DTT, 100 mM NaCl, 1 mM ADP, 5 mM MgCl2 (or 20 mM HEPES pH 7.5, 10 mM ADP), 25 C, then 0.025% glutaraldehyde 20 min; 'weaker' refers. To be noted: protein: recombinant; chain copies: 4.

B1: DNA21 (dsDNA)
DNA 1: AGCATTGGCTTTCTGGCCATCAGAGACATGCCTAGACATGCCTAGCTCTGGCATAGAAGAGGCGCT
DNA 2: AGCGCCTCTTCTATGCCAGAGCTAGGCATGTCTAGGCATGTCTCTGATGGCCAGAAAGCCAATGCT
For B1, the binding result with murine p53 (mp53) [1] and with human p53 (hp53) [2] (blunt) was “binds” throughout.

B2: Tigar_NS (spacer removed) (dsDNA)
DNA 1: B1 DNA 1 with C31T, T33C, A38T, C41T
DNA 2: B1 DNA 2 with G26A, T29A, A34G, G36A
For B2, the binding result with murine p53 (mp53) [3] and with human p53 (hp53) [4] was “binds” throughout.

B3: gadd45_0 (dsDNA)
DNA 1: ATGAAATGAACATGTCTAGGCATGCTGAATTAAT
DNA 2: ATTAATTCAGCATGCCTAGACATGTTCATTTCAT
For B3, the binding result in the data set with mp53Δ30, in the data set with murine p53 (mp53) [5] and with human p53 (hp53) [6] was “binds” throughout.

B4: gadd45 RE (Table 1) (dsDNA)
DNA 1: GAACATGTCTAAGCATGCTG
DNA 2: CAGCATGCTTAGACATGTTC
Turning to B4, the binding result with mp53 R273H is recorded as “no binding”; with murine p53 (mp53) [7], “binds”; with human p53 (hp53) [2], “binds”.

B5: DNA1 (dsDNA)
DNA 1: AGACATGCCTAGACATGCCT
DNA 2: AGGCATGTCTAGGCATGTCT
As to B5, the binding result with murine p53 (mp53) [1] and with human p53 (hp53) [8] was “binds” each time.

B6: p21 RE (dsDNA)
DNA 1: GAACATGTCCCAACATGTTG
DNA 2: CAACATGTTGGGACATGTTC
B6: in the data set with murine p53 (mp53) [7], the binding result is “binds”.

B7: non-specific control DNA (20 bp) (dsDNA)
DNA 1: TCGATCCTCTATGAATTAT
DNA 2: ATAATTCATAGAGGATCGA
Turning to B7, in the data set with mp53 R273H (label: 5' IR700 both strands), the binding result is reported as “no binding”.

B8: RGC RE (dsDNA)
DNA 1: TGCCTTGCCTGGACTTGCCTGGCCTTGCCT
DNA 2: AGGCAAGGCCAGGCAAGTTCAGGCAAGGCA
B8: in the data set with human p53 (hp53) [2], the binding result is “binds”.

B9: MCK RE (dsDNA)
DNA 1: TGGCAAGCCTATGACATGGCCGGGGCCTGCCT
DNA 2: AGGCAGGCCCCGGCCATGTCATAGGCTTGCCA
On to B9, for which, in the data set with human p53 (hp53) [2], the binding result is given as “binds”.

B10: DNA6 (no spacer) (dsDNA)
DNA 1: ATGAAATAGACATGCCTAGACATGCCTGAATTAAT
DNA 2: ATTAATTCAGGCATGTCTAGGCATGTCTATTTCAT
Take B10: the binding result with murine p53 (mp53) [7] and in the data set with human p53 (hp53) [2] was “binds” throughout.

B11: bax RE (dsDNA)
DNA 1: GGGCTATATTTCACAAGTTAGAGACAAGCCTGGGCGTGGGCTATATT
DNA 2: AATATAGCCCACGCCCAGGCTTGTCTCTAACTTGTGAAATATAGCCC
For B11, the binding result with murine p53 (mp53) [9] and with human p53 (hp53) [2] was “binds” in each case.

B12: gadd45_1 (dsDNA)
DNA 1: ATGAAATGAACATGTCTGAGGCATGCTGAATTAA
DNA 2: TTAATTCAGCATGCCTCAGACATGTTCATTTCAT
As for B12, the binding result in the data set with murine p53 (mp53) [5] and with human p53 (hp53) [6] was “binds” each time.

B13: DNA31 (1 bp spacer) (dsDNA)
DNA 1: AGCATTGGCTTTCTGGCCATCAGAGACATGCCTGAGACATGCCTAGCTCTGGCATAGAAGAGGCGCT
DNA 2: AGCGCCTCTTCTATGCCAGAGCTAGGCATGTCTCAGGCATGTCTCTGATGGCCAGAAAGCCAATGCT
In the case of B13, the binding result with murine p53 (mp53) [7] (blunt) and in the data set with human p53 (hp53) [2] (blunt) was “binds” in each case.
